Results taken from the DeepSol protein solubility set.

Experiment: soluble on expression in E. coli; label from the status in PepcDB or PDB records

Sequence	soluble on expression in E. coli
MGSDKIHHHHHHMNLVMEKTFEQYEKLFSMEEQKREDVFRYTMMRPFEKMWTAIQVPLKAKEPNGYDVIMAAKMLGYLDVRDAESGQKALQILKESHVSETAESALRQCIFFAEREQLRVNAKEIKFGLYIADPNKLQLQKGYCGFGGIPGFIHVWINPNSYNLPRIPSIIAHEFHHNVRFSYIDFHHGSVSVGDYLVIEGLAESFARELFGTERLGPWVTRFDHEDLQYSIDVINEVLDVKGFSEVSRYMFGDPIANDQGFKPAGLSAFAGYAVGYHAVQSFMNQHHITISEATRLDAKTIISQCGLFLHEKSVTYSGAF	not soluble
MSLNSTQMNKQVIDKYTQRHELYLEQLLNEIIIPAPQIRSALHYALFSGGKRIRPILVYLAGDLIDVDQGVLDIIAAALELTHCYSLIHDDLPAMDNDDLRRGKPSCHKAFDEATAILVGDGMQALAIEVLLMRLSPLLPAAQVVAITQVLVNASGISGMVSGQSLDLSELAKSSVTEEQLREIHLLKTGKLILACFEMVLAAQHEVSEQIKSALRTYGKHIGLVFQMQDDYLDLYAPTQILGKGRSSDQANQKTTFATLFNKQQLEEEIAVHYQIAMDSLRLFGSKAAALIELTKQLQNRSNLSEGHHHHHH	soluble
MGSLLSTPEGSNPIGKAIGFLSQRKRPAVELQDDFEPEVKVQRTCEVQDEEAEEENIEFEHEIDEEEIEEQDEIVHEQSENDQNLKDSDEKKNEIVALEKSTEKDEELPIPEKEAQVDQEDTLENLFEKETESNNTNEQQENVETNDTTSNFDLNEAEERVDVFSNGLLTSIQSTQPEIIA	soluble
MKEVIAQNAKLSADDLKEILPKANKLEDFAFEKNEDSTISEVFQAKNGSENEGYIIKVSPKGFNGPIDMVVAIDKNREISGVKVLSQAETPGLGAKVEESSFSEKFKGLTIEDNIKIVKTSPSSQGEIQGITGATISSNAVSSGINDAISFYKENVLGEDLSKEKILNLSKINLEGDLKELTIELEEGIDKVSIVSNGEKEIGYAIEASEVGMYEEKPIKFALGISTGGIITGVQIIDHKETAGLGDLIEDENFLNSFIGVSSLDKLSVKENTNEIDLSVYGEVVNVDSISGATKSSMAIIKGITNVINFYNNNLSLEHHHHHH	soluble
MGSDKIHHHHHHMARFMGSETEYGISTPSAPFLSPIVTSTHAVVAYSTARGFGEHRVRWDYAQESPLRDTRGFDLRRYHQAPVVDPHAIGVANVFVPNGARFYVDHAHPEYSSPEVTNAWDAMVYDAAGDHILMQAVSDVASFTSQNRSVLDGHDPCPALKIYKNNVDGKGASYGSHENYLYSRETDFDVLAQALIPFFVCRQVIIGAGRVGLGPQGDKPGFQVSQRADYIEQEISLETTLNRGIINTRDEPHTDADHWGRLHVIIGDANMSQTANFLKFGMTSLVLDAIEAGVDFSELKLKNAVSEVAKVSHDLSLTHQLRLADGSELTAIDILRRYLDKVQPFAETPVEQRVTALWGEVLGLLENDLLSTSHLLDWTAKLALIKSFEARGLSINDPKMYLIDLQYSDIDPQKSLYHALVSKGRMKTLCSAQDIADAAATPPQDSRAYFRGRVMDKFGESVLAANWESLIVATSSAKEYRVHTSGLDTLTREEAGELVEKSATIDELIEGLEKENLTPLTAIQAI	not soluble
MGHHHHHHSHMLYVRCGTVGSRMFLVYVSYLINTTIEEKEIVCKCHKDETVTIETVFPFDVAVKFVSTKFEHLERVYADIPFLLMTDLLSASPWALTIVSSELQLAPSMTTVDQLESQVDNVILQTGESASECFCLQCPSLGNIEGGVATGHYIISWKRTSAMENIPIITTVITLPHVIVESIPLHVNADLPSFGRVRESLPVKYHLQNKTDLVQDVEISVEPSDAFMFSGLKQIRLRILPGTEQEMLYNFYPLMAGYQQLPSLNINLLRFPNFTNQLLRRFIPTSIFVKPQGRLMDDTSIAAA	not soluble
MGSSHHHHHHGGTGENLYFQGGSGAGIDYSKWDKLCDSGTSSGTEYEGDRDDKGHDDSSRAPQVTRLEYPSRVTLGPNGVQLEQVPPKASASPFPGTCAPPEETDNGSVAVARCPIKEESFHAEYDTGASNASSHATGNTAGRRDDDQERMGATDDDEDLLYESLARNGGREGSHHWWTQTEDTVTVSFLVPWETKGKSVTEFRLYEARSTTALESELLQAHLEITILVRPACLTSPSSGPSASAAPLRIHQVFRYPVKLSEDLIDGCWQLHFMPRRHLRLLVVQLFKEPVGLGMTLWWDRCFVTDTTSVIADTQTIPDRKRRMEATPGSKEKAGQFRKVWADAHEEFRRRAQERKRKIIE	not soluble
DIELTQSPASLSVATGEKVTIRCMTSTDIDDDMNWYQQKPGEPPKFLISEGNTLRPGVPSRFSSSGTGTDFVFTIENTLSEDVGDYYCLQSFNVPLTFGCGTKLEIK	soluble
PSPQSLDGKNLNFDQQLVIFESENCEFCAQFDRDILAHWQADIPMVATKNTNPPADWTLDKPLFAAPTIVLFREGKEVVRYTGYTGEKENFWQWL	not soluble
MASSEGLASVDPWSFRQNFNIDSWLLSDSFSHDSDILAKALHRSISTSTESSPLSPSSFFDSSTAAVDFSPPQTLSNVSFGSDPEIPAASALGLGKRKRGPGVSGGKQTKRRSRVSNKKSQTTFITADAANFRQMVQQVTGAKFLGSSNSIFAPIVKPEPHRLASRLPPSCGNLDRSSAVPTLDTSSFLSNHHQENIITDLGAPTGSFHHQSSAGTTTANVGGGSSAVELDSYPSFPTLESWKVM	not soluble
MNYKADIGVFGGSGFYSFLENVEEIEMETPYGKPSDKIAIATYEGKRIAFLPRHGKNHQFPPHMIPYRANLYAMKKLGVKKILAPTSSGSLRADIKPGDFVICDQFVDRTTGRKDTFYDGPVTKHISSAHPYCPELRKIAIQVGKDLGITTHEKGTVVVIQGPRFSTVAESRWFSKMGWDVINMTQYPEVYLARELGICYANIALITDYDAGLEGRDDIEPVTEEAVLKVFAENNEKVKNMLFEVIKRIDLENSNCTCCNVDLSGLDL	soluble
MSLATVLVTGATGFIGSHVVEALAPRHDVVGLASSVYPSPRDAVRHVRMTLPHPDLEELVATLRPDVVVHCAGVASVGLSMHSPGVDFQSGPPVVFQLFDAIRKAGLASKVVLLSSAAVYGNPQSLPVGEDAPRAPISPYGWHKGMCEDIAQEFHGTYGIRSAVLRIFSCYGAGLRKQLLWDAAHKLLEGAFVFDGTGDETRDFIHVRDVAAFVTRLVEGWPDGGCVVCNVASGEATRIADLLALLPEAFGLSGVVPVFTGRVRGGDPHHWRADISRARQMGLAPAVSLEEGVREYATWFFAVTGGEGHHHHHH	soluble
GMISPERLRVYRFFASLTDEQLKDIALISEEKSFPTGSVIFKENSKADNLMLLLEGGVELFYSNGGAGSAANSTVCSVVPGAIFGVSSLIKPYHYTSSARATKPVRVVDINGARLREMSENNQALGQVLMNNVAAAVLARLH	soluble
MGSDKIHHHHHHMAILQLGMAFDADAFSASVIGIAADVGSHDSGVHRHGKGQLLYAPQGCITFAWEDAIGILPPTKAVWIPPHTPHRAVMTNVVAYRSLYFDCSRIVAPASVTMVDVNPLLKALIDKMAFWPWDTPEASMTHSCALFWEEFYAARCHSFRLTIPVDRRFHGFRQQLFRPEFLPPDIDSLAATIGASTKTVTRLFKRDTGMSYQEWRQQWRLLKAIELLSGALPVSEVGFRLGFSSDSAFIAFFRKQTGKTPRHFMQG	not soluble
MSVSYKGTISKTHSVFKPEKGRYYIYGALGCPFTHRAILARSLKKLEPVLGLVLSHWQLDSKGARFLPAPHRPEKYKERFFTATGGIASAKLDESEELGDVNNDSARLFVDGAFDPVENISRLSELYYLNDPKYPGTKFTVPVLWDSKTRKIVNNESGDIIRILNSGVFDEFIQSEETNVIDLVPHDLIDEIDKNIKWVHPKINLGVYKVGLAENGKIYETEVKTLFENLQKMECVLKENYKRLEEQFSGNKQKILAKYFVLGQRLTEADIRLYPSIIRFDVVYVQHFKCNLKTIRDGFPYLHLWLINLYWNYAEFRFTTDFNHIKLFYIRMEVSRNKINQFGIVPLGPKPDISRL	soluble
MAHHHHHHMKNALFVNENMTILKIFYKDKLYMIKNKICGYQHDINENLVNNPHLLFLGRQEAWILILKCKEEAILQNCITATRYEEIRESEIERHDCVLGSLRK	not soluble
HGTELPSPPSVWFEAEFFHHILHWTPIPQQSESTCYEVALLRYGIESWNSISQCSQTLSYDLTAVTLDLYHSNGYRARVRAVDGSRHSQWTVTNTRFSVDEVTLTVGSVNLEIHNGFILGKIQLPRPKMAPAQDTYESIFSHFREYEIAIRKVPGQFTFTHKKVKHEQFSLLTSGEVGEFCVQVKPSVASRSNKGMWSKEECISLTRQYFTVTN	soluble
